Source: patent publication US9150630B2, “Use of Idbf” (Industry-Academic Cooperation Foundation, Yonsei University, priority 2008, dated 2015)
Primed or numbered codes have the meaning given here. Ends that are not written are not given here. FITC′ = not defined here

T1: Dvl-1 (Mus musculus, UniProt P51141)
T1 construct: endogenous in cells; host or cells: MC3T3E1 osteoblasts
T1 sequence (P51141 1-695): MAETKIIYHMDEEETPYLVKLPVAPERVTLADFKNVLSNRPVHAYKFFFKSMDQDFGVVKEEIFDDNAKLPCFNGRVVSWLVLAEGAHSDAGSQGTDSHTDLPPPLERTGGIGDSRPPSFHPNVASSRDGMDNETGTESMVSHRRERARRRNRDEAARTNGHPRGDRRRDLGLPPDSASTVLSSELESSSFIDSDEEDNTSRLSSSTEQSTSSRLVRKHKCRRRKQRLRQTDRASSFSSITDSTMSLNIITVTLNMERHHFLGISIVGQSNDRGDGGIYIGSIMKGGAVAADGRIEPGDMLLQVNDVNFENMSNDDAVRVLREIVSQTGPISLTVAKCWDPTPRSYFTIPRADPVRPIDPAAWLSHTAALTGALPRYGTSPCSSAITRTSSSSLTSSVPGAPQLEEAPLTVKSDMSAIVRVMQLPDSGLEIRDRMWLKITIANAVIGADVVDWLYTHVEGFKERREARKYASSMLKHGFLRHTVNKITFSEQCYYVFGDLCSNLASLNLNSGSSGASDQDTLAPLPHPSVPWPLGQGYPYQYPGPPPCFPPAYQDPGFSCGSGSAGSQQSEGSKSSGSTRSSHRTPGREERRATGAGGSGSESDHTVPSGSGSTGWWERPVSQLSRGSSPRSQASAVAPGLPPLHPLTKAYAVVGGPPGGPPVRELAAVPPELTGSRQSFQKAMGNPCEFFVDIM


Tests used:
[1] = tested on: Wnt/β-catenin pathway in MC3T3E1 cells; test: Immunocytochemistry of PTD-DBMP treated MC3T3E1 cells; assay type: cell-based; conditions: 5 μM or 10 μM, 12 hours, FIG. 23
Protocol: PTD-DBMP (SEQ ID NO: 26) was treated into MC3T3E1 cells, and then the introduction and effect of PTD-DBMP were monitored by immunocytochemistry analyses. MC3T3E1 cells were incubated on gelatin-coated glasses for 1 day, and then 5 μM or 10 μM PTD-DBMP were treated on the incubated cells for 12 hours. The PTD-DBMP-treated cells were washed with PBS, and then fixed using a fixative solution (99% methanol and 1% formaldehyde). The fixed cells were permeabilized with 0.2% saponin solution, and then incubated with anti-β-catenin antibody (home-made; 1:100). The cells were incubated with Alexafluor 488 conjugated secondary antibody, and then the nucleus of cells were counterstained with DAPI.

[2] = tested on: Wnt/β-catenin signaling; test: β-catenin immunoblotting of PTD-DBMP treated HEK293 cells; assay type: cell-based, human; conditions: 1 μM or 4 μM PTD-DBMP, 12 hours, FIG. 22
Protocol: To investigate the effect of PTD-DBMP in the cells, HEK293 cells were incubated with 1 μM or 4 μM PTD-DBMP for 12 hours, and then the cell lysates were subjected into immunoblotting using anti-β-catenin, and anti-α-tubulin antibodies.

[3] = tested on: HEK293 cells; test: Introduction of FITC-labelled PTD-DBMP into HEK293 cells (fluorescence microscopy); assay type: cell-based, human; conditions: 1 μM or 4 μM peptide, 3 hours, FIG. 21
Protocol: To confirm the introduction of two PTD-DBMP into cells, HEK293 cells were seeded and incubated on gelatin-coated glasses for one day, and then 1 μM or 4 μM peptide were treated on the cells. After 3 hours, the cells were washed with PBS, and then fixed using fixative solution (99% methanol and 1% formaldehyde). Nucleus of cells were counterstained using DAPI, and the cells were observed using ECLIPSE TE2000-U microscope.

[4] = tested on: Wnt/β-catenin pathway; test: pTOPFLASH/pFOPFLASH luciferase reporter assay in MC3T3E1 cells; assay type: cell-based; conditions: 5 μM PTD-DBMP or 100 ng/ml Wnt3a, 12 hours, FIG. 24
Protocol: To investigate the effect of PTD-DBMP treatment on Wnt/β-catenin pathway of MC3T3E1 cells, 0.5 μg of pTOPFLASH or pFOPFLASH with 50 ng of pCMV-β-Gal was transfected into the cells. After 12 hours, the transfected cells were treated with 100 ng/ml Wnt3a, or 5 μM PTD-DBMP, and then incubated for 12 hours. Then the cells were washed with PBS, and then lysed in Lysis Buffer (Promega). The cell lysates were mixed with Luciferase Substrate (Promega) to monitor the luciferase activities.

[5] = tested on: MC3T3E1 cells (osteoblast differentiation); test: RT-PCR of osteoblast differentiation markers in MC3T3E1 cells; assay type: cell-based; conditions: 10 μM PTD-DBMP or 100 ng/ml Wnt3a, 2 and 4 days, FIG. 25
Protocol: To study the effect of PTD-DBMP on osteoblast differentiation, 100 ng/ml Wnt3a, or 10 μM PTD-DBMP was treated on MC3T3E1 cells. The cells were harvested after 2, and 4 days later, and then subjected into RT-PCR to monitor the amounts of ALP, Fgf18, RANKL, and HPRT mRNAs. The mRNA amounts of osteoblast differentiation markers (ALP, Fgf18, RANKL) were increased by PTD-DBMP treatment, as well as by Wnt3a treatment (FIG. 25).

[6] = tested on: β-catenin; test: Idbf overexpression or knock-down in HEK293 cells: β-catenin immunoblot and TOPFLASH reporter; assay type: cell-based, human; conditions: FIG. 5; for transcriptional activity of β-catenin: pTOPFLASH/pFOPFLASH luciferase; for protein level of β-catenin: transfection, immunoblotting
Protocol: 0.9 kb PCR product was restricted with XbaI and BamHI, and subcloned into a pcDNA3.1/myc His(−) vector (Invitrogen) (pcDNA3.1-Idbf-Myc). Idbf overexpression was performed by transfection of pcDNA3.1-Idbf-Myc into HEK293 cells using Lipofectamine plus reagent (Invitrogen) as the manufacturers' instruments.
Idbf knock-down was performed by transfection of Idbf siRNA into HEK293 cells using Lipofectamine plus reagent (Invitrogen) as the manufacturers' instruments. Idbf siRNA was synthesized using Silence™ siRNA Construction Kit (Ambion). To elevate the efficiency of knock-down, the mixture of two kinds of siRNAs, which are targeting different site of Idbf mRNA, were used.
For immunoblotting, cells were harvested, and lysed in RIPA buffer (50 mM Tris pH 7.5, 150 mM NaCl, 1 mM EDTA, and 1% Triton X-100). All chemicals were purchased from Sigma-Aldrich.
To detect proteins, whole cell lysates or immunoprecipitants were subjected into immunoblotting using anti-β-catenin, anti-Myc, or anti-α-tubulin antibodies. To monitor the transcriptional activity of β-catenin, 0.5 μg of pTOPFLASH or pFOPFLASH (kind gill from Dr. B. Vogelstein and Dr. K. Kinzler in Johns Hopkins Oncology Center, Baltimore, Md.) with 50 ng of pCMV-β-Gal was transfected into HEK293 cells. The luciferease activities, which indicate the transcriptional activity of β-catenin, were normalized by β-galactosidase activities, which show the efficiency of transfection. […] Oppositely, the protein level of β-catenin and its transcriptional activity were increased by Idbf knock-down (FIG. 5B). Error bars in FIG. 5 indicates standard deviation. WCL and IP are abbreviations of whole cell lysate and immunoprecipitation, respectively.

[7] = target: T1, Dvl-1; test: Idbf-Dvl-1 binding by immunoprecipitation with anti-Idbf antibody; conditions: with or without Wnt3a, FIG. 18B (MC3T3E1 osteoblast)
Text: To investigate the importance of Idbf-Dvl-1 binding in Idbf function, a mutant of Idbf, in which Dvl binding minimal peptide (DBMP; RKTGHQICKFRKC, SEQ ID NO: 4) was removed, was produced (pcDNA3.1-Idbf-ΔDBMP-Myc).
To monitor Idbf-Dvl-1 binding, cell lysates were subjected into immunoprecipitation using anti-Idbf antibody. Whole cell lysates were subjected into immunoblotting to detect the amounts of proteins, including β-catenin, α-tubulin, and Dvl-1.

[8] = tested on: Wnt/β-catenin pathway; test: Wnt3a treatment and Idbf overexpression in HEK293 cells (reporter assay, Idbf-Dvl-1 binding); assay type: cell-based, human; conditions: for effect on Wnt/β-catenin pathway in HEK293 cells: 100 ng/ml Wnt3a 12 hours or 0.5 μg plasmid, FIG. 19
Protocol: Function of Idbf in Wnt/β-catenin pathway was also studied in HEK293 cells, which is a established human embryonic kidney cell-line. HEK293 cells were transfected with 0.5 μg pcDNA3.1 or pcDNA3.1-Idbf-Myc. For reporter assay, 0.5 μg pTOPFLASH or pFOPFLASH with 50 ng pCMV-β-Gal was co-transfected. The transfeced cells were incubated in α-MEM with or without 100 ng/ml Wnt3a for 12 hours. […] The enhancement of Idbf-Dvl-1 binding by Wnt3a treatment was also not observed (FIG. 20).

[9] = tested on: Wnt/β-catenin pathway and osteoblast differentiation in MC3T3E1 cells; test: Idbf overexpression and Wnt3a treatment in MC3T3E1 cells, RT-PCR; assay type: cell-based; conditions: FIG. 17C; for ALP and Fgf18 mRNA: 100 ng/ml Wnt3a 12 hours, or ascorbic acid and β-glycerol-phosphate 2 days
Protocol: Idbf was overexpressed in MC3T3E1 cells to investigate the function of Idbf in Wnt/β-catenin pathway and osteoblast differentiation. MC3T3E1 cells were transfected with pcDNA3.1 or pcDNA3.1-Idbf-Myc, and then transfected cells were incubated in α-MEM media containing 100 ng/ml Wnt3a for 12 hours or in α-MEM containing 50 mg/l ascorbic acid and 10 mM […] for 2 days. Wnt3a treatment results in mRNA increments of ALP and Fgf18, which were more significant than ascorbic acid and β-glycerol-phosphate treatment (FIG. 17C). […] However, the common target genes of Wnt/β-catenin pathway, cyclin D and c-myc were not regulated by Wnt3a or ascorbic acid and β-glycerol-phosphate treatment (FIG. 17C).

| binding to Dvl-1 [7] | Molecule | activation of Wnt/β-catenin pathway (β-catenin in nucleus) [1] | introduction of peptide into cells (green fluorescence by FITC on nucleus and cytosol) [1] | amount of β-catenin [2] | introduction of peptide into cells (green fluorescence in nucleus and cytosol) [3] | activation of Wnt/β-catenin pathway (luciferase activity normalized by β-galactosidase) [4] | mRNA amounts of osteoblast differentiation markers (ALP, Fgf18, RANKL) [5] | transcriptional activity of β-catenin [6] | protein level of β-catenin [6] | effect on Wnt/β-catenin pathway in HEK293 cells [8] | ALP and Fgf18 mRNA [9] | enhancement of Idbf-Dvl-1 binding ([8]; Wnt3a treatment, FIG. 20) | cyclin D and c-myc (common target genes of Wnt/β-catenin pathway) ([9]; 100 ng/ml Wnt3a 12 hours) |
| --- | --- | --- | --- | --- | --- | --- | --- | --- | --- | --- | --- | --- | --- |
|  | PTD-DBMP: PTD and glycine linker on the amino terminus of DBMP, FITC on the carboxyl terminus; two peptides in section 7, SEQ ID NO: 26 in section 8 (RRRRRRRRGGGGRKTGHQICKFRKCK-{FITC′}; cysteine pairing not given here) | accumulation of β-catenin (red) in nucleus of the cells | successfully introduced into the cells | increased | successfully introduced into the cells | as significant as the activation by Wnt3a treatment | increased |  |  |  |  |  |  |
| binds to Dvl-1 in Wnt3a-dependent manner | Idbf: novel Dvl-binding protein (SEQ ID NO: 1), overexpressed by transfection of pcDNA3.1-Idbf-Myc (protein, listed as Homo sapiens, Myc tag) MSSLGGGSQDAGGSSSSSTNGSGGSGSSGPKAGAADKSAVVAAAAPASVADDTPPPERRNKSGIISEPLNKSLRRSRPLSHYSSFGSSGGSGGGSMMGGESADKATAAAAAASLLANGHDLAAAMAVDKSNPTSKHKSGAVASLLSKAERATELAAEGQLTLQQFAQSTEMLKRVVQEHLPLMSEAGAGLPDMEAVAGAEALNGQSDFPYLGAFPINPGLFIMTPAGVFLAESALHMAGLAEYPMQGELASAISSGKKKRKRCGMCAPCRRRINCEQCSSCRNRKTGHQICKFRKCEELKKKPSAALEKVMLPTGAAFRWFQ |  |  |  |  |  |  | reduced | reduced | very marginal | suppressed increment |  |  |
|  | Idbf siRNA: mixture of two siRNAs targeting different sites of Idbf mRNA (SEQ ID NO: 12-15) (nucleic acid, listed as RNA, chemistry not given here) chain 1: UUGUAGGAAUCGAAAGACUUU chain 2: AGUCUUUCGAUUCCUACAAUU chain 3: GCAGUUUGCGCAGUCCACAUU chain 4: UGUGGACUGCGCAAACUGCUU |  |  |  |  |  |  | increased | increased |  |  |  |  |
|  | Wnt3a: Wnt ligand used at 100 ng/ml to activate the Wnt/β-catenin signaling pathway (protein, UniProt P56704 19-352, looked up) Protein Wnt-3a: SYPIWWSLAVGPQYSSLGSQPILCASIPGLVPKQLRFCRNYVEIMPSVAEGIKIGIQECQHQFRGRRWNCTTVHDSLAIFGPVLDKATRESAFVHAIASAGVAFAVTRSCAEGTAAICGCSSRHQGSPGKGWKWGGCSEDIEFGGMVSREFADARENRPDARSAMNRHNNEAGRQAIASHMHLKCKCHGLSGSCEVKTCWWSQPDFRAIGDFLKDKYDSASEMVVEKHRESRGWVETLRPRYTYFKVPTERDLVYYEASPNFCEPNPETGSFGTRDRTCNVSSHGIDGCDLLCCGRGHNARAERRREKCRCVFHWCCYVSCQECTRVYDVHTCK |  |  |  |  | activation | increased |  |  | very marginal | increments | not observed | not regulated |
